Results published in US20220348667A1 (LUXEMBOURG INSTITUTE OF HEALTH LIH, published 2022).
Each block holds one molecule with its values, some of them ahead of it.

Experiments:
[1] = target: murine ACKR2 stably overexpressed on HEK293T cells (HEK.mACKR2) (mouse) (UniProt O08707); test: flow cytometry binding competition on HEK.mACKR2 cells, CCL5-AF647 (30 nM) as competitor
[2] = target: T1, human ACKR2 stably expressed on HEK293T cells (HEK.ACKR2) (human, UniProt O00590 1-384); test: flow cytometry, displacement of CXCL10-Cy5 from HEK.ACKR2 cells by unlabelled chemokine (50 nM)
T1 construct: whole, on cells; also called hACKR2; HEK.hACKR2
T1 sequence (looked up): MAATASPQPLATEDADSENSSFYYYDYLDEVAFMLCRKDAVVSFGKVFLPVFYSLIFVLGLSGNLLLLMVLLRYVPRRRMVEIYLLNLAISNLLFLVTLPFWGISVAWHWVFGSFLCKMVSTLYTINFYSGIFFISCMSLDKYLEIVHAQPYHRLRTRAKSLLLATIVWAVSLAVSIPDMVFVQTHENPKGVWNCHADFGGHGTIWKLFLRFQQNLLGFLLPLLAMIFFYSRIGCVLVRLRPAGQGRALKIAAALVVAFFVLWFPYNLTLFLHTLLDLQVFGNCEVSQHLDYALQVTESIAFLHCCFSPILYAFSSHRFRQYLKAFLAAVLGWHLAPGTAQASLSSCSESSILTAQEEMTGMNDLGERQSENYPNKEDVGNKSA
Method: HEK293T and HEK-ACKR2 cells were incubated with CXCL10-Cy5 at indicated concentrations for 45 minutes at 37° C., then washed twice with FACS buffer (PBS, 1% BSA, 0.1% NaN₃). Dead cells were excluded using Zombie Green viability dye (BioLegend). ACKR2-negative HEK293T cells were used to evaluate non-specific binding of CXCL10-Cy5. For binding competition with unlabelled chemokines (50 nM), the signal obtained for CXCL10-Cy5 in the absence of unlabelled chemokines was used to define 100% binding. Ligand binding was quantified by mean fluorescence intensity on a BD FACS Fortessa cytometer (BD Biosciences).

Chain of murine ACKR2 stably overexpressed on HEK293T cells (HEK.mACKR2) (mouse) (O08707 whole entry): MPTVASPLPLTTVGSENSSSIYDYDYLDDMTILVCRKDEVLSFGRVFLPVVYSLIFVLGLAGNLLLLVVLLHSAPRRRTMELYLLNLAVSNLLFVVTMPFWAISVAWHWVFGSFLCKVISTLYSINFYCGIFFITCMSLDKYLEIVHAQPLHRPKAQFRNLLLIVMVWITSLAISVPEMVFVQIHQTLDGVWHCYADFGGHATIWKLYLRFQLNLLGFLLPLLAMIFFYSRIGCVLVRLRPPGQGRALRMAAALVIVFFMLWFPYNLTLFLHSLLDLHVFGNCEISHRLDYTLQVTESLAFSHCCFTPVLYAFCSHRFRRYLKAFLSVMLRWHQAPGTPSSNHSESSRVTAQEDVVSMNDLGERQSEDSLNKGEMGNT

- % displacement of CCL5-AF647 at 50 µg/ml antibody [1]: > 80%
Molecule: polyclonal Goat anti-mACKR2 (ab1656, Abcam) (antibody)

- binding result [2]: binds
B1: CCL5 (unlabelled, PeproTech) (ligand, human, UniProt P13501 24-91, looked up)
chain: SPYSSDTTPCCFAYIARPLPRAHIKEYFYTSGKCSNPAVVFVTRKNRQVCANPEKKWVREYINSLEMS
